# In publication PMC4766014, “Structures of Two Melanoma-Associated Antigens Suggest Allosteric Regulation of Effector Binding” (PLoS ONE, 2016):
# B1: MAGE-A3 MHD domain, residues 104-314 (domain or fragment, human, UniProt P43357 104-314, looked up)
# chain: EFQAALSRKVAELVHFLLLKYRAREPVTKAEMLGSVVGNWQYFFPVIFSKASSSLQLVFGIELMEVDPIGHLYIFATCLGLSYDGLLGDNQIMPKAGLLIIVLAIIAREGDCAPEEKIWEELSVLEVFEGREDSILGDPKKLLTQHFVQENYLEYRQVPGSDPACYEFLWGPRALVETSYVKVLHHMVKISGGPHISYPPLHEWVLREGEE
# notes: MAGE-A3, human, MAGE homology domain (MHD), residues 104-314; Dimer in solution by AUC and SAXS (dimer B interface); The final 4 residues are disordered in the crystal structure; also called MAGE-A3^104-314; melanoma associated antigen A3
# B2: MAGE-A3 C-terminally truncated construct, residues 104-294 (domain or fragment, human, UniProt P43357 104-294, looked up)
# chain: EFQAALSRKVAELVHFLLLKYRAREPVTKAEMLGSVVGNWQYFFPVIFSKASSSLQLVFGIELMEVDPIGHLYIFATCLGLSYDGLLGDNQIMPKAGLLIIVLAIIAREGDCAPEEKIWEELSVLEVFEGREDSILGDPKKLLTQHFVQENYLEYRQVPGSDPACYEFLWGPRALVETSYVKVLHHMVKIS
# notes: MAGE-A3, human, residues 104-294 (lacks the final 20 residues of the crystallized construct); also called MAGE-A3^104-294
# Molecular target: the molecule itself
# Experiment: AUC; sedimentation velocity, 4°C, 45,000 rpm, 10 mM HEPES pH 7.5, 150 mM NaCl, 0.5 mM TCEP; MAGE-A3 at 0.75 mg/ml, MAGE-A4 at 0.5 mg/ml; c(s) analysis with SEDFIT
row,Protein,stoichiometry N
1,B1,2
2,B2,2
